Measurements published in patent US20100167997A1, “METHOD FOR STIMULATION COLLAGEN SYNTHESIS AND/OR KGF EXPRESSION” (ATYR PHARMA, INC., priority 2005, published 2010).

Key:
collagen [1] = assay: RT-PCR analysis of collagen transcript in foreskin fibroblast cells; type: cell-based; conditions: for collagen synthesis (RT-PCR), deletion fragments, compared with C-terminal fragment SEQ ID NO: 15: 100 nM for 2 hours and 6 hours, FIG. 6; for synthesis of collagen (RT-PCR), AIMP1 fragments: 100 nM, 0, 1, 2, 4 and 6 hours, FIG. 5
Description: (§1) In order to measure the collagen transcript RNA induced by the AIMP1, foreskin fibroblast cells (5×10^4 cells/well; obtained from MTT; accession number: MC1232) were cultured in 10% serum-containing DMEM medium on a 6-well plate for 12 hours and then cultured in serum-free medium for about 3 hours. Next, the cultured cells were treated with the AIMP1 (SEQ ID NO: 1) at varying AIMP1 concentrations of 0, 20, 50, 100 and 200 nM for 6 hours (RT-PCR) or 12 hours (Western blot).
The cells treated with the AIMP1 at varying concentrations in Example <1-1> were collected and dissolved in TRIzol (invitrogen). 10% by weight of chloroform was added to the cell lysate, and mixed well. The mixture was centrifuged at 12,000 g for 15 minutes and the supernatant was collected. Ethanol was added to the collected supernatant to a final concentration of 70%. Then, the supernant was centrifuged at 26,000 g for 5 minutes and the precipitant was collected. The precipitant was dried and dissolved in sterilized distilled water, and the total RNA was extracted. 3 μg of the total RNA was used to prepare cDNA. Then, the cDNA was amplified by PCR using collagen-specific primers (SEQ ID NO: 4 and SEQ ID NO: 5). At this time, for use as a control group, the cDNA was subjected to PCR using GADPH-specific primers (SEQ ID NO: 6 and SEQ ID NO: 7). The PCR reaction consisted of: pre-denaturation of the template DNA at 95° C. for 5 min, followed by 25 cycles of 1 min at 95° C., 1 min at 52° C. and 1 min at 72° C., and then a final extension for 5 min at 72° C.
(§2) Foreskin fibroblast cells (5×10^4 cells/well) were cultured in 10% serum-containing DMEM medium on a 6-well plate for 12 hours, and then, cultured in serum-free medium for about 3 hours. Next, the cultured cells were treated with 100 nM of the AIMP1 at various time intervals (0, 2, 4, 6, 12 and 24 hours).
(§3) Foreskin fibroblast cells (5×10^4 cells/well) were cultured in 10% serum-containing DMEM medium on a 6-well plate about 12 hours, and then, cultured in serum-free medium for about 3 hours. Then, the cultured cells were treated with 100 nM of the N-terminal and C-terminal fragments of the AIMP1 prepared in Reference Example 1, at various time intervals of 0, 1, 2, 4, and 6 hours. Then, RT-PCR was performed in the same manner as in Example <1-2> using each of collagen-specific primers (SEQ ID NO: 4 and SEQ ID NO: 5), KGF-specific primers (SEQ ID NO: 8 and SEQ ID NO: 9) and GADPH-specific primers (SEQ ID NO: 6 and SEQ ID NO: 7).
(§4) Foreskin fibroblast cells (5×10^4 cells/well) were cultured in 10% serum-containing DMEM medium on a 6-well plate for 12 hours and then cultured in serum-free medium for about 3 hours. Next, the cultured cells were treated with each of the N-terminal fragments (SEQ ID NOS: 12, 13 and 14) and C-terminal fragment (SEQ ID NO: 15) of AIMP1 prepared in Reference Example 2 at an concentration of 100 nM for 2 hours and 6 hours, respectively. The treated cells were subjected to RT-PCR using collagen-specific primers (SEQ ID NOS: 4 and 5), KGF-specific primers (SEQ ID NOS: 8 and 9) and GADPH-specific primers (SEQ ID NOS: 6 and 7) in the same manner as in Example <1-2>.

collagen [2] = assay: Western blot analysis of collagen (anti-collagen I antibody) in foreskin fibroblast cells; type: cell-based; conditions: 200 nM for 12 hours, FIG. 7
Description: as §1
The cells treated with the AIMP1 at varying AIMP1 concentrations in Example <1-1> were collected and lysed in a cell lysis buffer (50 mM HEPES, pH 7.5, 150 mM NaCl, 10% glycerol, 5 mM EGTA, 1 mM sodium orthovanadate, 10 mM NaF, 12 mM b-glycerophosphate, 1 mM DTT, 1 mM PMSF, […] aprotinin, and 1% NP40). Lysed cells were centrifuged at 26,000 g for 15 minutes and the cell extract was isolated. 30 μg of the cell extract was separated by 8% SDS-PAGE and immunoblotted with an anti-collagen I antibody (Abcam) according to any conventional method known in the art. As a control group, an anti-tubulin antibody (Sigma) was used.
as §2
Foreskin fibroblast cells (5×10^5 cells/well) were cultured in 10% serum-containing DMEM medium on a 6-well plate for 48 hours and then cultured in serum-free medium for about 3 hours. Next, the cultured cells were treated with each of the AIMP1 (SEQ ID NO: 1) and the AIMP1 N-terminal fragments (SEQ ID NOS: 2 and 12) at a concentration of 200 nM for 12 hours. As a control group, cells without treatment were used.
The cells treated with each of the AIMP1 and its N-terminal fragments and the control cells were collected at the indicated time and subjected to Western blot analysis in the same manner as in Example <1-3>.

KGF [3] = assay: RT-PCR analysis of KGF expression in foreskin fibroblast cells; type: cell-based; conditions: for KGF synthesis (RT-PCR), deletion fragments, compared with C-terminal fragment SEQ ID NO: 15: 100 nM for 2 hours and 6 hours, FIG. 6; for synthesis of KGF (RT-PCR), AIMP1 fragments: 100 nM, 0, 1, 2, 4 and 6 hours, FIG. 5
Description: From foreskin fibroblast cells treated with 100 nM of the AIMP1 for 2 hours, the total RNA was extracted in the same manner as described in Example <1-2>. Then, the extract was amplified by RT-PCR using KGF-specific primers (SEQ ID NO: 8 and SEQ ID NO: 9). The control groups were amplified using cyclin D-specific primers (SEQ ID NO: 10 and SEQ ID NO: 11) and GADPH-specific primers (SEQ ID NO: 6 and SEQ ID NO: 7), respectively. The PCR reaction consisted of: predenaturation of the template DNA at 95° C. for 5 min, followed by 25 cycles of 1 min at 95° C., 1 min at 52° C. and 1 min at 72° C., and then, a final extension for 5 min at 72° C.
as §3, §4

collagen [4] = assay: Activity to stimulate collagen synthesis (data not shown)
KGF [5] = assay: Activity to stimulate KGF expression (data not shown)

## SEQ ID NO: 12: N-terminal deletion fragment of AIMP1, amino acids 6-46 (AVLKRLEQKGAEADQIIEYLKQQVSLLKEKAILQATLREEK; PEPTIDE (1)..(41) AIMP1-(6-46); listed as Homo sapiens)
Collagen [1]
  collagen synthesis (RT-PCR), deletion fragments, compared with C-terminal fragment SEQ ID NO: 15: more stimulated
Collagen [2]
  synthesis of collagen, protein levels (Western blot), compared with cells without treatment: more stimulated
KGF [3]
  KGF synthesis (RT-PCR), deletion fragments, compared with C-terminal fragment SEQ ID NO: 15: more stimulated

## SEQ ID NO: 13: N-terminal deletion fragment of AIMP1, amino acids 1-46 (MANNDAVLKRLEQKGAEADQIIEYLKQQVSLLKEKAILQATLREEK; PEPTIDE (1)..(46) AIMP1-(1-46); listed as Homo sapiens)
Collagen [1]
  collagen synthesis (RT-PCR), deletion fragments, compared with C-terminal fragment SEQ ID NO: 15: more stimulated
KGF [3]
  KGF synthesis (RT-PCR), deletion fragments, compared with C-terminal fragment SEQ ID NO: 15: more stimulated

## SEQ ID NO: 14: N-terminal deletion fragment of AIMP1, amino acids 1-53 (MANNDAVLKRLEQKGAEADQIIEYLKQQVSLLKEKAILQATLREEKKLRVENA; PEPTIDE (1)..(53) AIMP1-(1-53); listed as Homo sapiens)
Collagen [1]
  collagen synthesis (RT-PCR), deletion fragments, compared with C-terminal fragment SEQ ID NO: 15: more stimulated
KGF [3]
  KGF synthesis (RT-PCR), deletion fragments, compared with C-terminal fragment SEQ ID NO: 15: more stimulated

B1: SEQ ID NO: 2: N-terminal fragment of AIMP1, amino acids 1-147 (protein, listed as Homo sapiens)
chain: MANNDAVLKRLEQKGAEADQIIEYLKQQVSLLKEKAILQATLREEKKLRVENAKLKKEIEELKQELIQAEIQNGVKQIAFPSGTPLHANSMVSENVIQSTAVTTVSSGTKEQIKGGTGDEKKAKEKIEKKGEKKEKKQQSIAGSADS
modifications: PEPTIDE (1)..(147) AIMP1-(1-147)
Collagen [1]
  synthesis of collagen (RT-PCR), AIMP1 fragments: stimulated
Collagen [2]
  synthesis of collagen, protein levels (Western blot), compared with cells without treatment: more stimulated
KGF [3]
  synthesis of KGF (RT-PCR), AIMP1 fragments: stimulated

B2: C-terminal fragment: C-terminal fragment of AIMP1, amino acids 148-312 (protein, listed as Homo sapiens)
chain: KPIDVSRLDLRIGCIITARKHPDADSLYVEEVDVGEIAPRTVVSGLVNHVPLEQMQNRMVILLCNLKPAKMRGVLSQAMVMCASSPEKIEILAPPNGSVPGDRITFDAFPGEPDKELNPKKKIWEQIQPDLHTNDECVATYKGVPFEVKGKGVCRAQTMSNSGIK
modifications: PEPTIDE (1)..(165) AIMP1-(148-312)
Collagen [1]
  synthesis of collagen (RT-PCR), AIMP1 fragments: no significant effect
KGF [3]
  synthesis of KGF (RT-PCR), AIMP1 fragments: no significant effect

B3: SEQ ID NO: 27: fragment consisting of amino acids 1-192 of the AIMP1 (protein, listed as Homo sapiens)
chain: MANNDAVLKRLEQKGAEADQIIEYLKQQVSLLKEKAILQATLREEKKLRVENAKLKKEIEELKQELIQAEIQNGVKQIAFPSGTPLHANSMVSENVIQSTAVTTVSSGTKEQIKGGTGDEKKAKEKIEKKGEKKEKKQQSIAGSADSKPIDVSRLDLRIGCIITARKHPDADSLYVEEVDVGEIAPRTVVSG
modifications: PEPTIDE (1)..(192) AIMP1-(1-192)
notes: fragment consisting of amino acids 1-192 of the AIMP1
Collagen [4]
  activity to stimulate collagen synthesis: have the activity to stimulate collagen synthesis
KGF [5]
  activity to stimulate KGF expression: have the activity to stimulate collagen synthesis and KGF expression

B4: SEQ ID NO: 28: fragment consisting of amino acids 6-192 of the AIMP1 (protein, listed as Homo sapiens)
chain: AVLKRLEQKGAEADQIIEYLKQQVSLLKEKAILQATLREEKKLRVENAKLKKEIEELKQELIQAEIQNGVKQIAFPSGTPLHANSMVSENVIQSTAVTTVSSGTKEQIKGGTGDEKKAKEKIEKKGEKKEKKQQSIAGSADSKPIDVSRLDLRIGCIITARKHPDADSLYVEEVDVGEIAPRTVVSG
modifications: PEPTIDE (1)..(187) AIMP1-(6-192)
notes: fragment consisting of amino acids 6-192 of the AIMP1
Collagen [4]
  activity to stimulate collagen synthesis: have the activity to stimulate collagen synthesis
KGF [5]
  activity to stimulate KGF expression: have the activity to stimulate collagen synthesis and KGF expression
